T1: human iRhom2 (inactive rhomboid protein 2, isoform 1), endogenously expressed on human cells (human, UniProt Q6PJF5 1-856)
T1 sequence: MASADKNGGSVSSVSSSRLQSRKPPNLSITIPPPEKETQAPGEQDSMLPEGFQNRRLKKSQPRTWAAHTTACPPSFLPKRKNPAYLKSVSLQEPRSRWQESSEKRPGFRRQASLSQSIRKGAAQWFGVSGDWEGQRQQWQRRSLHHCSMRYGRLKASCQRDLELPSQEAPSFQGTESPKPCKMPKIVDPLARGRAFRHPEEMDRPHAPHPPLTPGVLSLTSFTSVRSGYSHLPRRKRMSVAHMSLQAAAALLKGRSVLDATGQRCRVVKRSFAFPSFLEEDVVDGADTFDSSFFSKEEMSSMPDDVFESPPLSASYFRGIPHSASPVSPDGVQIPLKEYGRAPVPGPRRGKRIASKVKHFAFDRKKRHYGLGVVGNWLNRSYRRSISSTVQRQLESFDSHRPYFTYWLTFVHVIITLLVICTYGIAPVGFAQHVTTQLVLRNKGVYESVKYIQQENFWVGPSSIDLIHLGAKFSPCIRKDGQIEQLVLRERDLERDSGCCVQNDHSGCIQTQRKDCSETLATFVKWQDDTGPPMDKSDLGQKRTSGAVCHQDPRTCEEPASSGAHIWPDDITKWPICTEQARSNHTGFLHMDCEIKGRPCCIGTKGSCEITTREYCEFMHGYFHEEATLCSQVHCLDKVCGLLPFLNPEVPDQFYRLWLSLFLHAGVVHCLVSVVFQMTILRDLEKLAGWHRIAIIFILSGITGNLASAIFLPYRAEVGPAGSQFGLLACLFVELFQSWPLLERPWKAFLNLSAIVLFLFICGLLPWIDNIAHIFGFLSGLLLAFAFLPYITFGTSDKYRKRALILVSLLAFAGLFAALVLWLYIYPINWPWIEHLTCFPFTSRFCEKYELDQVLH

T2: dog iRhom2 full length wild type, C-terminally tagged with 3 consecutive copies of the T7 epitope (dog, UniProt Q00M95 1-827)
T2 construct: whole, on cells; also called Dog-iR2-FL-WT-T7
T2 sequence: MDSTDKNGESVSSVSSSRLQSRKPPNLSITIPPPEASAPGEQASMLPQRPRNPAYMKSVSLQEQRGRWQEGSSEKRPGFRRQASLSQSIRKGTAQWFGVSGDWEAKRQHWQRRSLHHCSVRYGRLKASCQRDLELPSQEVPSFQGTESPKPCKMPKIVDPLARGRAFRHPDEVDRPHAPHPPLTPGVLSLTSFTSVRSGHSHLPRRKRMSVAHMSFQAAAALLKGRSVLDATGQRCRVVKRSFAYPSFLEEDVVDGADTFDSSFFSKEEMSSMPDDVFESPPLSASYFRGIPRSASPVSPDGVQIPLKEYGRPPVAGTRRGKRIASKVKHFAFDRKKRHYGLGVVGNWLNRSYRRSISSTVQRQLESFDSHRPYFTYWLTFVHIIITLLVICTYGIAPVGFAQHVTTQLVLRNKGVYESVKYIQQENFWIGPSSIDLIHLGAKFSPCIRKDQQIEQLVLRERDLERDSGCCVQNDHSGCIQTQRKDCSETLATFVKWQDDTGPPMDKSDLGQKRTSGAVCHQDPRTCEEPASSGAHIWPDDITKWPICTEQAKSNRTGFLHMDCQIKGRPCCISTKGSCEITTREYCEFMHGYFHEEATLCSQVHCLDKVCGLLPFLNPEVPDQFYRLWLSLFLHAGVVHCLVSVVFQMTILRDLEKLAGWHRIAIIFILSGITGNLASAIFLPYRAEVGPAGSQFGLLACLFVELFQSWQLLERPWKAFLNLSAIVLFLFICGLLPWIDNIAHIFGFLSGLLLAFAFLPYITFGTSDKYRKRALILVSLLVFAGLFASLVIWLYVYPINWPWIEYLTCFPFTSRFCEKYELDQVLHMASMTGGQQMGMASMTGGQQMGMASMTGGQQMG

T3: human iRhom1, endogenously expressed on RH-30 cells (human, UniProt Q96CC6 1-855)
T3 construct: RH-30 cells are described as endogenously negative for iRhom2 but endogenously expressing iRhom1; also called NP_071895.3
T3 sequence: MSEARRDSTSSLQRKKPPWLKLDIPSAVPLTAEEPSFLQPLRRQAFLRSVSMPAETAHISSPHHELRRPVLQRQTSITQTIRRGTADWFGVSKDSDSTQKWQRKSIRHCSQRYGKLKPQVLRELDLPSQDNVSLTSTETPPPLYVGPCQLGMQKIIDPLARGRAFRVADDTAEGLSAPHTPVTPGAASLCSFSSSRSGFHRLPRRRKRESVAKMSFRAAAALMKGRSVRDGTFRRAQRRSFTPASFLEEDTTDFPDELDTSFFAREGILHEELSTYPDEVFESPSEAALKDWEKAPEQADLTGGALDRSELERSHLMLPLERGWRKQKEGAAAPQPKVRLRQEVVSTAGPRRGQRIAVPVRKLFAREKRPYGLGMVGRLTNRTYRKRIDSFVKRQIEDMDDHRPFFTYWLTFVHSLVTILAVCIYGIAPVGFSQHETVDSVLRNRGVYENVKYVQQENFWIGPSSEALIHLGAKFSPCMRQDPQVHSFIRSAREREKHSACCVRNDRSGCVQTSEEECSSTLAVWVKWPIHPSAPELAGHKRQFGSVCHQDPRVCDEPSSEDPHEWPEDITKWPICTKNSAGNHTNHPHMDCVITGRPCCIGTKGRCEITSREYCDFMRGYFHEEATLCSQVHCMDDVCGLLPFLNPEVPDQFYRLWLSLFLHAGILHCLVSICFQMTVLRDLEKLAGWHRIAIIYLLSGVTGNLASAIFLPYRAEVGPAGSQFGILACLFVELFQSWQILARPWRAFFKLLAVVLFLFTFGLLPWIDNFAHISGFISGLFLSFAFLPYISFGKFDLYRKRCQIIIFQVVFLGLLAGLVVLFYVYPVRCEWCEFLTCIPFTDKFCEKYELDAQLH


Key:
[1] = biological target: T1, human iRhom2 (inactive rhomboid protein …); test: cell-based or functional assay
[2] = biological target: T2, dog iRhom2 full length wild type, …; test: FACS on MEF-DKO-iR2 Dog cells, 3 µg/ml
Experimental: In brief, immortalized MEF-DKO-EV control cells, MEF-DKO-rhesus-iR2-FL-WT-T7 cells, MEF-DKO-cyno-iR2-FL-WT-T7 cells, MEF-DKO-dog-iR2-FL-WT-T7 cells and MEF-DKO-rabbit-iR2-FL-WT-T7 cells, as well as their respective iRhom1 counterparts, were harvested with 10 mM EDTA in PBS, washed and resuspended in FACS buffer (PBS, 3% FBS, 0.05% sodium azide), and seeded in Nunc U-bottom 96-well plates (Thermo Fisher Scientific, USA) at approximately 3×10⁵ cells per well. To pellet cells and remove supernatants, the plates were centrifuged at 1,500 rpm and 4° C. for 3 minutes. For primary staining, cells were resuspended in 100 μl per well of either FACS buffer alone (controls), mouse monoclonal anti-T7 IgG (Merck Millipore, USA) at 3 μg/ml FACS buffer or the antibodies of the present disclosure also at 3 μg/ml FACS buffer and incubated on ice for 1 hour. Afterwards, plates were centrifuged at 1,500 rpm and 4° C. for 3 minutes and washed twice with 200 μl per well of FACS buffer. For secondary staining, cells were spun down and resuspended in 100 μl per well of PE-conjugated goat anti-mouse IgG F(ab′)2 detection fragment (Dianova, Germany) diluted 1:100 in FACS buffer. Protected from light, the cell suspensions were incubated on ice for 1 hour. […] Finally, cells were resuspended in 150 μl per well of FACS buffer and analyzed using a BD Accuri™ C6 Plus flow cytometer (Becton Dickinson, Germany).

[3] = biological target: T3, human iRhom1, endogenously expressed on …; test: FACS on RH-30 cells (iRhom1-positive, not iRhom2-positive)

Row | Binder | inhibition of LPS-induced release of TNFα from PBMCs of rheumatoid arthritis patients, 1 µg/ml, chimeric antibody [1] [% inhibition] | inhibition of PMA-induced release of HB-EGF from PBMCs of rheumatoid arthritis patients, 1 µg/ml, chimeric antibody [1] [% inhibition] | inhibition of PMA-induced release of HB-EGF from THP-1 cells, 3 µg/ml [1] [% inhibition] | inhibition of PMA-induced release of HB-EGF from U-937 cells [1] [% inhibition] | inhibition of PMA-induced release of IL-6R from PBMCs of rheumatoid arthritis patients, 1 µg/ml, chimeric antibody [1] [% inhibition] | inhibition of PMA-induced release of IL-6R from U-937 cells, 3 µg/ml [1] [% inhibition] | inhibition of PMA-induced release of TNFα from U-937 cells, 3 µg/ml [1] [% inhibition] | binding result [2] | binding result [3]
1 | chimeric version of antibody 22 (antibody, V domains shown) VH: QVTLKESGPGILQPSQTLSLTCSFSGFSLSTFGMGVGWIRQPSGKGLEWLAHIWWDDEKYYNSALKSRLTISKATSKNQVFLKIANVDTADTATYYCARISNYGSNYWYFNVWGTGTTVTVSS VL: QVVLTQSPALMSASPGEKVTMTCSAGSSVSYMYWYQQKPGSSPRVLIYDTSNLASGVPARFTGSGSGTSYSLTISRMEAEDAATYYCQQWNSYPLTFGAGTKLELK | 76.5 | 54.7 | 81.9 | 103 | 61.1 | 85.6 | 96.5 | – | –
2 | chimeric version of antibody 44 (antibody, V domains shown) VH: QVTLKESGPGILQPSQTLSLTCSFSGFSLSTFGMGVGWIRQPSEKGLEWLAHIWWDDDKYYNPALKSRLTISKDTSKNQIFLKITNVDTAETATYYCSRIGNYGSNYWYFDVWGTGTTVTVSS VL: QIVLTQSPAVMSASPGEKVTMTCTASSSVYYMYWYQQTPGSSPRLLIYDTSNLASGVPVRFSGSGSGTSYSLTISRMEAEDAATYYCQQWNTYPLTFGAGTKLELK | 70.2 | 37.8 | 70.7 | 99.2 | 53.1 | 85.2 | 89.2 | – | –
3 | chimeric version of antibody 42 (antibody, V domains shown) VH: QVTLKESGPGILQPSQTLSLTCSLSGFSLSTFGRGVGWIRQPSGKGLEWLAHIWWDDEKYYNPALKSRLTISKDTSKNQVFLRIANVDTADTATYYCARIQNYGSNYWYFDVWGTGTTVTVSS VL: LIVLTQSPAIMSASPGEKVTMTCGATSRISYMFWYQQKPGSSPRVLIYDTSNLASGVPVRFSGSGSGTSYSLTISRVEAEDVATYYCQQWNSYPLTFGAGTKLELK | 82.1 | 76.1 | 80.8 | 103 | 73.5 | 91.8 | 96.5 | – | –
4 | chimeric version of antibody 34 (antibody, V domains shown) VH: QVTLKESGPGILQPSQTLSLTCSFSGFSLSTFSLGVGWIRQSSGKGLEWLAHIWWDDEKYYNPALKSRLTISKDTSKNQVFLKIANVDAADTATYYCARAYYSKSYYALDYWGQGTSVTVSS VL: DIQMTQSPSSLSASLGERVSLTCRASQEISGYLSWLQQKPDGTIKRLIYAASTLDSGVPKRFSGSRSGSDYSLAISSLESEDFADYYCLQYANFPFTFGSGTKLEIK | 66.6 | 30.6 | 76.1 | 98.1 | 45.6 | 82.8 | 87.4 | – | –
5 | chimeric version of antibody 16 (antibody, V domains shown, Chimeric version made in CHO cells, detected with anti-human IgG; the variable domains are those of clone #16; also called ch16) VH: QVTLKESGPGILQPSQTLSLTCSFSGFSLSTFALGVGWIRQPSGRGLEWLAHIWWDDDKYYNPALKSRLTISKDTSKNHVFLKIANVDTADTATYYCARITTYYYGMDYWGQGTSVTVSS VL: DIVLSQSPATLSVTPGDSVSLFCRASQSIGNHLHWYQQESHASPRLLIKYASQSISGIPSRFSGSGSGTDFTLSINSVETEDFGMYFCQQSYNWPLTFGAGTKLELK | 83.6 | 66 | 73.6 | 101 | 72.3 | 84.3 | 93.7 | binds | no binding (tested: 3 µg/ml)

Source: patent US20240174744A1 (SCIRHOM, published 2024)
